Test results published in patent US6709650B1, “Spray-dried microparticles and their use as therapeutic vehicles” (Elam Drug Delivery Limited, priority 1991, dated 2004).

What was measured:
[1] = soluble HSA microcapsules dissolved in water or extracted; TLC or HPLC
Experimental: The beclomethasone was extracted from the microcapsules by the precipitation of the HSA in 10% TCA, and the supernatant was extracted into ethanol. The ethanol extract was analysed using HPLC, at a wavelength 242 nm.
The soluble microcapsules thus made were sampled, characterised and analysed for drug content.

trypsin = target: T1, trypsin (Bos taurus, UniProt P00760); experiment: Trypsin inhibitory activity of spray-dried alpha-1 antitrypsin vs freeze dried starting material; type: biochemical; details: within the experimental error
T1 construct: gene PRSS1
T1 sequence (P00760 24-246): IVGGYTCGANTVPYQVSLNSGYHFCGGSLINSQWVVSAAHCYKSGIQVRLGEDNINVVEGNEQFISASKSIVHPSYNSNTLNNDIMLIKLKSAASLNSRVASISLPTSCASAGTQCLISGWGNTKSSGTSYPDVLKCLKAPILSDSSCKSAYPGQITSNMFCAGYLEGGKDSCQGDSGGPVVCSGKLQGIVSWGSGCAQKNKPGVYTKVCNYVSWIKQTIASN
Experimental: (§1) Alpha-1 antitrypsin derived from human serum was spray-dried under conditions similar to Example 1 with an inlet temperature of 150° C. and an outlet temperature of 80° C. In all other respects the conditions for drying were the same as Example 1. […] The microparticles were dissolved in aqueous medium and analysed for retention of protein structure and normal trypsin inhibitory activity, then compared to the original freeze dried starting material.

[2] = Structural integrity of protein after spray-drying (gel filtration, tryptic peptide mapping, reverse phase, capillary electrophoresis); type: physicochemical; details: microparticles dissolved in aqueous medium, compared with original material
Experimental: Under the conditions described, with a nozzle pressure of 7.5 bar, microparticles were produced with a particle size of 4.7 μm. These soluble microparticles were smooth and spherical with less than 1% of the particles over a particle size of 6 μm. The microparticles were dissolved in aqueous medium and the molecular weight of the HSA determined by gel filtration chromatography. The resultant chromatograms for the original and spray-dried HSA are shown (FIG. 1).
as §1

Row | retention of inhibitory activity after spray-drying (trypsin) | Molecule | state of the active compound on dissolution of the microcapsules [1] | structural change of the protein after spray-drying [2]
1 |  | C[C@H]1C[C@H]2[C@@H]3CCC4=CC(=O)C=C[C@]4(C)[C@@]3(Cl)[C@@H](O)C[C@]2(C)[C@@]1(O)C(=O)CO [beclomethasone] | majority of the active compound was in the free state | 
2 | full retention of inhibitory activity | Alpha-1 antitrypsin: Alpha-1 antitrypsin derived from human serum, spray-dried to soluble microparticles of mean size 4.5 μm |  | no significant structural changes
